# Assay: yeast display, Sf9 membrane polyspecificity reagent, FACS + sequencing; frameworks hold sequencing errors
# Summary of the method: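 Nanobodies from a synthetic yeast display library (Saccharomyces cerevisiae BJ5465), induced 36–48 hours with galactose, were stained 1 hour at 4 °C with 10% biotinylated, detergent-solubilized Sf9 membrane reagent, enriched on streptavidin microbeads, then FACS-sorted. Anti-HA (expression) and streptavidin (reagent binding) fluorescence set low and high (top ~1%) gates. Polyreactivity labels come from the gate of origin. Genes were colony-PCR amplified, MiSeq 2 × 250 sequenced and filtered by CDR length.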
row,Sequence,polyreactivity (PSR sort gate)
1,QVQLVESGGGLVQAGGSLRLSCAASGGILSYNTMGWYRQAPGKERELVAAITSSGGRTYYADSVKGRFTISRDNAKNTVYLQMNSLKPEDTAVYYCNTVYYFTYYYWGQGTQVTVSS,high polyreactivity
2,QVQLVESGGGLVQAGGSLRLSCAASGSIITVNAMGWYRQAPGKEREFVAGITSIGGRTYYADSVMGRFTISRDNAKNTVYLQMYSLKPEDTAVYYCNKRSYRARYDYWGQGTQVTVSS,high polyreactivity
3,QVQLVESGGGLVQAGGSLRLSCAASGSIFSIYAMGWYRQAPGKERDFVASITVTDGSTYYADSVKGRFTISRDNAKNTVYLQMNSLKPEDTAVYYCYADGWYALYEWLAVSGYYWGQGTQVTVSS,low polyreactivity
4,QVQLVESRGCLVQAGVSLRLSCSASGSIFKIYAMGWYRQAPGKERELVATITGIADSTYYADSVKGRFTISRDNAKNTVYLLMNSLKPDDNAVYYCAADNYVADYDYWGQGTQVTVSS,low polyreactivity
5,QVQLVESGGGLVQAGGSLRLSCAASGRIFGTYAMGWYRQAPGKERELVAAITSSGGRTYYADSVKGRFTISRDNAKNTVYLQMNRLKPEDTAVYYCAAYPWYRMWGQGTQVTVSS,high polyreactivity
6,QVQLVESGGGLVQAGGSLRLSCAPSGIIFRIYAMGWYRQAPGKEREFVAAISGSGDSTYYADSVKGRFTISRDNAKNTVYLQMNSLKPEDTAVYYCAADWTLVYYHEDYWGQGSQVTVSS,high polyreactivity
7,QVQLVESGGGLVQAGGSLRLSCAASGRIFSYYAMGWYRQAPGKERELVATINSGGSTNYADSVKGRFTISRDNAKNTVYLQMNSLKPVATAVYYCAASPVWWYDYWGQGTQVTVSS,low polyreactivity
8,HVQLQESGGGLVQARGSLRLSCAATGSIFYRLKMGWHRQAPGKERELVATIDPGSNTYYADSVKGSFTISRDNAKKTVYPQMYSLKPEDTAVYYCAVSAHWTIHYYYWGEGTQVTVSS,high polyreactivity
9,QDQLVDTVGGLVQAGGSLRLSCAASGRTFWFYAMGWYRQAPGKESELVASITTGGGTNYADSVKGRFTISRDNAKITVYLQMNSLKPEDTAVYYCAVKRYHFGSGVDWYGGSSYGYWGQGTQVTVSS,high polyreactivity
10,QVQLVESGGGKVQAGGSLRLSCAASGLTFSRYAMGWYRQAPGKERELVAAISGRGASTSYADSVKGRFTISRDNAKNTVYLQMNSLKPEDTAVYYCAAQKYYHSYLNRHYYWGQGTQVTVSS,high polyreactivity
11,QVQLVESGGGLVQAGGSLRLSCAASGSMFSTYAMGWYRQAPGKERELVAASSRSGGSTYYADSVKGRFTISRDNAKNTVYLQMNSLKPEDTADYYCAKVARRQRYDYWGQGTQVTVSS,high polyreactivity
12,QVQLVESGGGLVQAGGSLRLSCAASGRTFYRYAMGWYRQAPGKERELVARITNRGGITYYADSVKGRFTISRDNAKNTVYLQMNSLKPEDTAVYYCAADPIGYTWAGTHGDYYNEHDYWGQGTQVTVSS,low polyreactivity
13,QVQLVESGGGLVQAGGRLRLSCAPSGLIFYGYAMGWYRQAPGKERELVAAISGSGGRTYYADSVKGRYTISRDNAKNTVYLEMNSLKPEDSAVYYCAGKVPRFGAPGVNYWGQGTQVTVSS,high polyreactivity
14,QVQLVESGGGLVQAGGSLRLSCAASGRIFVNYAMGWYRQAPGKERELVAAITSDGSTSYADSVKGRFTISRDNAKNTVYLQMNSLKPEDTAVYYCAKDFFEHSPVSHTYSSSNYDYWGQGTQVTVSS,low polyreactivity
15,QVQLVESGGGLVQAGGSLRLSCAASGRTFSYNAMGWYRQAPGKERELVAGISSRGGSTYYADSVKGRFTISRDNAKNTVYLQMNSLKPEDTAVYYCNALGRGKDSYSGVDYWGQGTQVTVSS,high polyreactivity
16,QVQLVESGGGLVQAGGSLRVSWAACGSTFYGYGMGWYRQAPWKERELVAAITGSGDTTYYADSVKGRFTISRDNAKNTVYLQMNSLKPEDTAVYYCAADASSKLYEYWGQGTQVTVSS,low polyreactivity
17,QVHLVESGGGLVQAGGSLRLTCAASGSIFLYYAMGWYRQAPGKERELVAGIRRGGRTNYADSVKGRFTISRDNAKNTVYLQMNSLKPEDTAVYYCAKGGYWGQGTLVTVSS,high polyreactivity
18,QVQLVESGGGLVQAGGSLRLSCAASGSIFIYAMGWYRQAPGKERELVATISWSGTSTYADSVKGRFTISRDNAKNTVYLQMNSLKPEDTAVYYCNKLKRTYYSSGYPHDYWGQGTQVTVSS,low polyreactivity
19,QVQLVESGGGLVQAGGSLRLSCAASGFIFGHYVMGWYRQAPGKERELVAAISVGGGRTYYADSVKGRFTISRDNAKNTVYLQMNSLKPEDTAVYYCRSYGYDYWGQGTQVTVSS,high polyreactivity
20,QVQLEESGGGLVQAGGSLRLSCAASGSILESNVMGWYRQAPGKERELVASISSSGDSTYADSVKGRFTISRDNAKNTVYLQMNSLKPEDTAVYYCAADRWYWTYALYYWGQGTQVTVSS,low polyreactivity
21,QVQLVESGGGLVQAGGSLRLSCAASGFTFANYVMGWSRQAPGKERELVAAITTPGGSTSYADSVKGRFTISRDNAKNTVYLQMNSLKPEDTAVYYCNKTTYYPSDYDYWGQGTQETVSS,low polyreactivity
22,QVQLVESGGVLVQAGGSLRLSCAASGRIFRYYAMGWYRQAPGKERELVAAIRYRSGGTYYADSVKGRFTISRDNAKNTVYLQMNSLKTEDTAVYYCNADKRLRGHGYDYWGEGTQVTVSS,high polyreactivity

row,Sequence,polyreactivity (PSR sort gate)
1,QVQLVESGGGLVQAGGSLRLSCAASGRTFYRYTMGWYRQAPGKERELVAAIDRRGGSTYYADSVKGRFTISRDNAKNTVYLQMNSLKPEDTAVYYCNAVTHYSFDYWGQGTQVTVSS,high polyreactivity
2,QVQLVESGGGLVQAGGSLRLSCAASGRIFYKYTMGWYRQAPGKERELVAAITDSDDSTYYADSVKGRFTISRDNAKITVYLQMNSLKPEDTAVYYCAASGPVTESDMDYWGQGTQVTVSS,low polyreactivity
3,QVQIVESGGGLVQEGGSLRLSCAASGFIFRRNAMGWYRQAPGKERELVAAISSRGGTTHYADSVKGRFTISRDNAKNTVYLQMNSLKPEDSSVYYCATTPQRGGLGGVDYWGQGTQVTVSS,high polyreactivity
4,QVQLVESGGGLVQAGGSLRLSCAASGSILAYNAMGWYRQAPGKERELVAAISWTGRTYYADSVKGRFTISRDNAKNTVYLQMNSLKPEDTAVYYCNARGRQRSRGSQIYDYWGQGSQVTVSS,high polyreactivity
5,QVQLVESGGGLVQAGGSLRLSCAASGRTFFWYAMGWYRQAPGKERDLVAAIRGAGRTNYADSVKGRFTISRYNAKNTVYLQMNSLKPEDTAVYYCAAQHYPWRRYDYWGQGTQVTVSS,high polyreactivity
6,QVQLQESDGGLVQAGGSLRLTCAASGSISPQYYMGWYRQAPGKEREFVAISKGTTTYYADSVKGRLTISRVNANNTVYLQMNSLKPEDTAVYCCAAGRWLQKVHAYWDQGTQVTVSS,low polyreactivity
7,QVQLVESGGGLVQAGGSLRLTCAASGYTFRRTGMGWYRQAPGKERELVAAITNGGSTKYADSVKGRYTISRDNAKNTVYLQMNSLKPEDTAVYDCFYYVYAYDYWGQGTQVTLSS,high polyreactivity
8,QVQLVESGGGLVQAGGSLRLSCAASGFTFPGYTKGWYIQAPGKERELVATISRSGGSMFYADSVKGRFTISRDNAKNTVYLQMNSLKPEDTAVYYCNKSPSWWRYKTGLDYWGQGTQVTVSS,high polyreactivity
9,QVQLVESGGGLVQAGGSLRLSCAASGSIFSSYAMGWYRQAPGKERELVAAITTRGDSTRYADSVKGRFTISRDNAKNTVYLQMNSLKPEDTAVYYCAARRRGASKYGYWGQGTQVTVSS,high polyreactivity
10,QVQLVESGGGLVQPGGSLRLSCAASGSIFIGYAMGWYRQAPGKERELVASIRNGGSTNYADSVKGRFTISRDNAKNTVYLQMNSLKPEDTAVYYCAGRYPVFLVSFGFDYWGQGTQVTVSS,low polyreactivity
11,QVQLVESGGGLVQAGGSLRLSCAASGAIFGFYAMGWYRQAAGKERELVADITFSVGSTNYADSVKGRFTISRDNAKNTVYLQRNSLKPEDTAVYYCAVANVYYEGYDYWGQGTQVTVSS,low polyreactivity
12,QVQLVESRGGLVQAGGSLRLSCAASGSTFPGYAMGWYRQPPGKERELVAAINWRGASTYYADSVKGRFTMSRDNAKNTVYLQMNSLKPEDTAVYYCAGKYNHVTDEYEYWGQGTQVTVSS,high polyreactivity
13,QVQLVESGGGLVQAGGSLRLSCAASGFIFRYNTMGWYRQAPGKQRELVATITSGGSTYYADSVKGRFTISRDNAKNTFYLQMNSLKPEDTAVYYFAKVRDVLWRFNYWGQGTQVTVSS,high polyreactivity
14,QVQLVESGGGLVQAGGSLRLSCAASGRTFGFNAMGWYRQAPGKARELVAAISSSSSSTYYADSVKGRFTISRDNAKNTVYLQMNSLKPEDTAVYYCAKQEPYPFGGYYEYDYWGQGTQVTVSS,low polyreactivity
15,QVQLVESGGSLVQAGGSLLLSSAASLRTFGVNDIGWYRKAPGKERNFVAAISYSDTSTYYADSVKVSFTISRDNAKNTVYLQMNSLKPEDTAVYYCAVETYLQYDNGYGHDYWGQGTQVTVSS,low polyreactivity
16,QGQLVESGGGLVQAGGSLRLSCAASGRTFKYYAMGWYRQAPGQERELVAAISYNGGSTFYADSVKGRFTISRDNAKNTVYLQMNSLKPEDTAVYYCAAVYRYRNRRDYDYWGQGTQVTVSS,high polyreactivity
17,QVQLVESGGGLVQAGGSLRLSCAASGSTFGEYAMGWYRQAPGKERELVAAISWSGDTTYYADSVKGRFTISRDNAKNTVYLQMNSLKPEDTAVYYCAARDYDRVGEDYWGQGTQVTVSS,low polyreactivity
18,QVQRVDSGGGLVQAGGSLRLICAASGFTFKYYAMGWYRQAPGKERELVAAITRGGDTYYADSVMGRFTISRDNAKNTVYLQMNRLKPEETAVYYCNTASDKRAFDYWGQGTQLTVSS,low polyreactivity
19,QVQLVESGGGLVQAGGSLRLSCAASGSTFSGNAMGWYRQAPGKERELVAAITSSGGSTYYADSVKGRFTISRDTAKNTVYLQMNSLKPEDTAVYYCAAKSRRTRRSYYWGQGTQVTVSS,high polyreactivity
20,QVQLVESGGGLVQAGGSLRLSCAASGSILRLYVMGWYRQAPGKERELVADISDRGGSTYYADSVKGRFTISRDNAKNTVYLQLNSLKPEDTAVYYCDKDSETAGATYTEYDYWGQGTQVTVSS,low polyreactivity
21,QVQLVESGGGLVQAGGSLRLSCAASGRTLYRNAMGWYRQAPGKERELVAAISRSGGITYYADSVKGRFTISRDNAKNTVYLQMNSLKPEDTAVYYCAARYGRGVAPYGYWGQGTQVTVSS,high polyreactivity
